Measured values as given in the RNAGym collection of RNA variant scans (doi:10.7554/elife.80360).

B1: HDV Ribozyme (parent)
chain: GGCCGGCAUGGUCCCAGCCUCCUCGCUGGCGCCGGCUGGGCAACAUUCCGAGGGGACCGUCCCCUCGGUAAUGGCGAAUGGGACCCA

Variants of: B1
Assay: self-cleavage, relative activity (ratio to wild type); higher = more cleavage; co-transcriptional

Going from GGCCGGCAUGGUCCCAGCCUCCUCGCUGGCGCCGGCUGGGCAACAUUCCGAGGGGUCCGUCCCCUCGGUAAUGGCGAAUGGGUCCCA [A56U A83U] to GGCCGGCAUGGUCCCAGCCUCCUCGCUGGGGCCGGCUGGGCAACAGUCCGAGGGGACCGUCCCCUCGGUAAUGGCGAAUGGGACCCA [C30G U46G], the self-cleavage falls from 0.318 to 0.0361.

Going from GGCCGGCAUGGUCCCAGCCUUCUCGCUGGCGCCGGCUGGGCAACAUUCCGAGGGGACCAUCCCCUCGGUAAUGGCGAAUGGGACCCA [C21U G59A] to GGGCGGCAUGGUCCCAGCCUCCUCGCUGGCGCCGGCUGGGCAACAUUCCGAGGGGACCGUCCCCUCGGUAGUGGCGAAUGGGACCCA [C3G A71G], the self-cleavage rises from 0.154 to 0.631.

Compared with GGCCGGCAUGGUCCCAGCCUCCUCGCUGGCGUCGGCUGGGCAACAUUCCUAGGGGACCGUCCCCUCGGUAAUGGCGAAUGGGACCCA [C32U G50U], GGCCGGCAUGGUCCCAGCCUCCUCGGUGGCGCCGGCUGGCCAACAUUCCGAGGGGACCGUCCCCUCGGUAAUGGCGAAUGGGACCCA [C26G G40C] is lower in self-cleavage: 0.844 for the first, 0.19 for the second.

Going from GGCCGGCAUGGUGCCAGCCUCCUCGCUGGCGCCGGCUGGGCAACAUUCCGAGGGGGCCGUCCCCUCGGUAAUGGCGAAUGGGACCCA [C13G A56G] to GGCCGGCAUGGUCCCAGCCUCCUCGCUGGCGCCGGCUGGGCAACAUUCCGAGGGGACCGUCCCCUUGGUAAUGGCGAAUGGGACGCA [C66U C85G], the self-cleavage rises from 0.0536 to 0.923.

Compared with GGCCGGCAUGGUCCCAGCCUCCUCGCUGGCGCCGGCUGGGCAACAUUCCGAGGGGACCGUACCCUCGGUAAUGGCGAAUGGGACUCA [C61A C85U], GGCAGGCAUGGUCCCAGCCUCCUCGUUGGCGCCGGCUGGGCAACAUUCCGAGGGGACCGUCCCCUCGGUAAUGGCGAAUGGGACCCA [C4A C26U] is lower in self-cleavage: 1.05 for the first, 0.415 for the second.

Going from GGCCGGAAUGGUCCCAGCCUCCUCGAUGGCGCCGGCUGGGCAACAUUCCGAGGGGACCGUCCCCUCGGUAAUGGCGAAUGGGACCCA [C7A C26A] to GGCCGGCAUGGUCCCAGCCUCCUCGCUGGCGCCGGCUGGGCAACAUUUCGAGGGGACCGUCCCCUCGUUAAUGGCGAAUGGGACCCA [C48U G68U], the self-cleavage rises from 0.615 to 0.893.

Going from GGCCGGCAUGGUCCCAGCCUCCUCGCUGGCGCCGGCUGGGCAACAUUCCGAGGGGACCGUCUCCUUGGUAAUGGCGAAUGGGACCCA [C62U C66U] to GGCCGGCAUGGUCCCAGCCUCCUCGCUGCCGCCGGCUGGGCAACAUUCCAAGGGGACCGUCCCCUCGGUAAUGGCGAAUGGGACCCA [G29C G50A], the self-cleavage falls from 0.953 to 0.0277.

Compared with GGCCGGCAUGGUCCCAGCCUCCUCGCUGGCGCCGGCUGGGCAACAUUCAGAGGGGACCGUCCCCUCGGUCAUGGCGAAUGGGACCCA [C49A A70C], GGCCGGCAUGGUCCCAGCCUCCUCGCUGGCGCCGGCUGGGCAACAUUCCGAGGGGACCGUCCCGUCGGUAAUGGCGAAAGGGACCCA [C64G U79A] is lower in self-cleavage: 0.831 for the first, 0.692 for the second.

Compared with GGCCGGCAUGGUCCCAGCCUCCUCGCUGGCGCCGGCUCGGCAACAUUCCGAGGGGACCGUCCCCUCGGUAAUGGCGACUGGGACCCA [G38C A78C], GGCCGGCAUGGUCCCAGCCUCCUCGCUGGCGCCGGCUGGGCAACAUUGCGAGGGGACCGUCCCCUCGGUAAUGGCGAGUGGGACCCA [C48G A78G] is higher in self-cleavage: 0 for the first, 0.86 for the second.

Going from GGCCGGCAAGGUCCCAGCCUCCUCGCUGGCGCCGGCUGGGCAACAUUCCGAGGGGACCGUCCCCUCGGUAAUGACGAAUGGGACCCA [U9A G74A] to GGCCGGCAUGGUCCCAGCCUCCUCGCCGGCGCCGGCUGGGCAACAUUCCGAGGGGACCGUCCCCUCGGUAAUGGGGAAUGGGACCCA [U27C C75G], the self-cleavage falls from 0.491 to 0.

Going from GGCCGACAAGGUCCCAGCCUCCUCGCUGGCGCCGGCUGGGCAACAUUCCGAGGGGACCGUCCCCUCGGUAAUGGCGAAUGGGACCCA [G6A U9A] to GGCCGGCAUGGUCCCAGCGUCCUCGCUGGCGCCGGCUGGGCAACAUUCCGAGGGGACCGUCCCCUCGGUAAUGGCAAAUGGGACCCA [C19G G76A], the self-cleavage falls from 0.942 to 0.0545.

First: GGCCGGCAUGGUCCCAGCCUCCUCGCGGGGGCCGGCUGGGCAACAUUCCGAGGGGACCGUCCCCUCGGUAAUGGCGAAUGGGACCCA [U27G C30G]
Second: GGCCGGCAUGGUCCCGGCCUCCUCGCUGGCGCCGGAUGGGCAACAUUCCGAGGGGACCGUCCCCUCGGUAAUGGCGAAUGGGACCCA [A16G C36A]
The self-cleavage of the first is higher: 0.277 for the first, 0.229 for the second.

Compared with GGCCGACAUGGUCCCAGCCUCCUCGCUGGCGCCGGCUGGGCAACGUUCCGAGGGGACCGUCCCCUCGGUAAUGGCGAAUGGGACCCA [G6A A45G], GGCCGGCAUGGUCCCAGCCUCCUCGCUGGCCCCGGCUGGGCAGCAUUCCGAGGGGACCGUCCCCUCGGUAAUGGCGAAUGGGACCCA [G31C A43G] is lower in self-cleavage: 0.425 for the first, 0.104 for the second.

First: GGCCGGCAUGGUCCAUGCCUCCUCGCUGGCGCCGGCUGGGCAACAUUCCGAGGGGACCGUCCCCUCGGUAAUGGCGAAUGGGACCCA [C15A A16U]
Second: GACCGGCAUGGUCCCAGCCUCCUCGCUGGCGCCGGCUGGGCAACAUUCCAAGGGGACCGUCCCCUCGGUAAUGGCGAAUGGGACCCA [G2A G50A]
The self-cleavage of the first is higher: 0.499 for the first, 0.0386 for the second.

Compared with GGCCGGCACGGGCCCAGCCUCCUCGCUGGCGCCGGCUGGGCAACAUUCCGAGGGGACCGUCCCCUCGGUAAUGGCGAAUGGGACCCA [U9C U12G], GGCCGGCAUGGUCCCAGCCUCGUCGCUGGCGCCGGCUGGGCAACAUUCCGAGUGGACCGUCCCCUCGGUAAUGGCGAAUGGGACCCA [C22G G53U] is lower in self-cleavage: 1.07 for the first, 0.0563 for the second.

Going from GGCCGGCAUGGUCCCAGCCCCCUCGCUGGCUCCGGCUGGGCAACAUUCCGAGGGGACCGUCCCCUCGGUAAUGGCGAAUGGGACCCA [U20C G31U] to AGCCGGCAUGGUCCCAGCCUCCUCGCUGGCGCCGGCUGGGCAACAUUCCGAGGCGACCGUCCCCUCGGUAAUGGCGAAUGGGACCCA [G1A G54C], the self-cleavage rises from 0.141 to 0.364.
